Experimental data: US20160319041

Key:
[1] = system: T1, rNFH-SA (engineered protein with residues 426-1066 of the rat NF-H sidearm domain, N-terminal tetra-Cys tag, C-terminal poly-His-Asn tag)
T1 sequence: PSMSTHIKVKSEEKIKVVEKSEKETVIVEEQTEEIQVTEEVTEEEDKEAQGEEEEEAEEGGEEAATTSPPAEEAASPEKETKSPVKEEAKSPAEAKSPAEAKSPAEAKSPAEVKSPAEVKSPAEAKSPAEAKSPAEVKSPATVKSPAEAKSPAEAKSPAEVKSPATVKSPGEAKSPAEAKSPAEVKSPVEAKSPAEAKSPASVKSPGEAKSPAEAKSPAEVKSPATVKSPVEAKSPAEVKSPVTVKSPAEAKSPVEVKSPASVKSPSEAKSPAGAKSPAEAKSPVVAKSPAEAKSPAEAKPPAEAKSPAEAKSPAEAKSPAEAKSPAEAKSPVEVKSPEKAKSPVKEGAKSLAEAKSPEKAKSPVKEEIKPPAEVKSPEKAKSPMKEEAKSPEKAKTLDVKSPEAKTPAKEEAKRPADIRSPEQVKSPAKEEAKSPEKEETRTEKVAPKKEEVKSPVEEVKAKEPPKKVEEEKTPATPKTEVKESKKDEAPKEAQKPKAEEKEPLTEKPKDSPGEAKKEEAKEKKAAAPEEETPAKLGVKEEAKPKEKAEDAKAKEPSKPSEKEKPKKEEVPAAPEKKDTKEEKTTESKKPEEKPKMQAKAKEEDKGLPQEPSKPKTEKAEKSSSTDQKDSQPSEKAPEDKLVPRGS

[2] = target: T2, rNFH-SA (engineered protein with residues 426-1066 of the rat NF-H sidearm domain, N-terminal tetra-Cys tag, C-terminal poly-His-Asn tag)
T2 chain: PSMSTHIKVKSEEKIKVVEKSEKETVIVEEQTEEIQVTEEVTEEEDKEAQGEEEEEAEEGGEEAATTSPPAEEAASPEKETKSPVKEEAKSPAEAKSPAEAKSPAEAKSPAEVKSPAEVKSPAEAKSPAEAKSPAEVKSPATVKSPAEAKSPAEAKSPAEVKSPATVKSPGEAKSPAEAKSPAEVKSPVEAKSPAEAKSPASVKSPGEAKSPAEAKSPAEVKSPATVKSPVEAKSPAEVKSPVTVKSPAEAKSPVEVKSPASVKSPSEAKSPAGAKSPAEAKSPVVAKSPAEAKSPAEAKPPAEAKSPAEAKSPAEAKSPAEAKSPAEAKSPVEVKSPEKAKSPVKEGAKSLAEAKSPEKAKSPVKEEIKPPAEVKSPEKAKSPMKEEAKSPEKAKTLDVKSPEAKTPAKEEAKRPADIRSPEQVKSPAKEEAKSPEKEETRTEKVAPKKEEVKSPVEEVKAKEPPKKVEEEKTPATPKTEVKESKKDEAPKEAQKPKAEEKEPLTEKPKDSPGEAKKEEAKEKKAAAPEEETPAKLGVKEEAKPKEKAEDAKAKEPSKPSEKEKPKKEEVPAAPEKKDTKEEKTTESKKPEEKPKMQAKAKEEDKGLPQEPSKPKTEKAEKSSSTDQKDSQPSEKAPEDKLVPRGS

| Molecule | loss of HN-tag immunofluorescence; brush height by AFM [1] | loss of HN-tag immunofluorescence [2] | reduction of brush height by AFM [2] |
| --- | --- | --- | --- |
| thrombin | addition of thrombin produced a loss of fluorescence (indicating successful enzymatic cleavage) without producing a significant change in brush height by AFM |  |  |
| clostripain (protein) NKNQKVTIMYYCDADNNLEGSLLNDIEEMKTGYKDSPNLNLIALVDRSPRYSSDEKVLGEDFSDTRLYKIEHNKANRLDGKNEFPEISTTSKYEANMGDPEVLKKFIDYCKSNYEADKYVLIMANHGGGAREKSNPRLNRAICWDDSNLDKNGEADCLYMGEISDHLTEKQSVDLLAFDACLMGTAEVAYQYRPGNGGFSADTLVASSPVVWGPGFKYDKIFDRIKAGGGTNNEDDLTLGGKEQNFDPATITNEQLGALFVEEQRDSTHANGRYDQHLSFYDLKKAESVKRAIDNLAVNLSNENKKSEIEKLRGSGIHTDLMHYFDEYSEGEWVEYPYFDVYDLCEKINKSENFSSKTKDLASNAMNKLNEMIVYSFGDPSNNFKEGKNGLSIFLPNGDKKYSTYYTSTKIPHWTMQSWYNSIDTVKYGLNPYGKLSWCKDGQDPEINKVGNWFELLDSWFDKTNDVTGGVNHYQW |  | addition of clostripain produced the same loss of fluorescence | reducing brush height by 20% |
